Laboratory results reported in PMC10933270, “The eukaryotic-like characteristics of small GTPase, roadblock and TRAPPC3 proteins from Asgard archaea” (Communications Biology, 2024).
Blank lines part the entries; values can stand above or below the compound they belong to.

Tests used:
[1] = target: Odin-RBLC7, truncated roadblock (RBLC7) protein from Odin LCB_4 (Odinarchaeota LCB_4); assay: crystal structure; Odin-RBLC7 crystals in 200 mM MgSO4, 20% PEG 4000, 10% glycerol, 20 °C; molecular replacement with dynein DLRB1 (PDB 3L7H)
[2] = target: T1, Rab11B (Homo sapiens, UniProt Q15907); assay: phosphate release assay (EnzChek), GTP hydrolysis; format: biochemical; conditions: 1 mM GTP, 2 mM MgCl2, 20 mM HEPES pH 7.5, 150 mM NaCl, 25 °C, 2 h; no GAP or GEF; heat-denatured control
T1 construct: codon-optimized gene in pSY5, N-terminal His8 tag with HRV 3C site (tag removed); E. coli expression
T1 sequence (Q15907 1-218): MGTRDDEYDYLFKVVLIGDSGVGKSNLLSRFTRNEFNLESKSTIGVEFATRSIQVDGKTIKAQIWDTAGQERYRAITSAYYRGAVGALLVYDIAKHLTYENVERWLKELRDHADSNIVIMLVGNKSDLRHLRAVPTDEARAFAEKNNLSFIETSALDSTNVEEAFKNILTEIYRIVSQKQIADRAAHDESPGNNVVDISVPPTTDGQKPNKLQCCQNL

[3] = target: T2, Thor-Rab (Candidatus Thorarchaeota archaeon SMTZ1-45, UniProt A0A135VL07); assay: phosphate release assay (EnzChek), GTP hydrolysis; format: biochemical; conditions: 1 mM GTP, 2 mM MgCl2, 20 mM HEPES pH 7.5, 150 mM NaCl, 25 °C, 2 h; no GAP or GEF; heat-denatured control
T2 construct: codon-optimized gene in pSY5, N-terminal His8 tag removed by HRV 3C; E. coli expression; naturally lacks the C-terminal cysteine extension; two molecules in the asymmetric unit
T2 sequence (A0A135VL07 1-182): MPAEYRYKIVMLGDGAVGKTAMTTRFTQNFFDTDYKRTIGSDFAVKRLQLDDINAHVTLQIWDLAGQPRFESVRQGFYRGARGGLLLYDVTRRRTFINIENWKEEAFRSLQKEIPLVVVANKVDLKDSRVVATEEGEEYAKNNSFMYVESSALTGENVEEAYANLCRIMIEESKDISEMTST

[4] = target: Thor-RB, predicted roadblock (RB) protein from Thor SMTZ1-45 (Candidatus Thorarchaeota archaeon SMTZ1-45); assay: crystal structure; Thor-RB crystals in 100 mM sodium acetate trihydrate, pH 5.0, 200 mM LiCl, 16% wt/vol PEG 6000, 20 °C; molecular replacement with MglB (PDB 3T1S)
[5] = target: SMTZ1-45 Thor-TRAPPC3, TRAPPC3-like protein from Thor SMTZ1-45 (Candidatus Thorarchaeota archaeon SMTZ1-45); assay: crystal structure; Thor-TRAPPC3 crystals in 100 mM HEPES, pH 7.5, 250 mM magnesium formate-dihydrate, 18% wt/vol PEG3350, 20 °C; molecular replacement with the AB25 Thor-TRAPPC3 model (7YH2)
[6] = target: T2, Thor-Rab; assay: X-ray crystallography, co-crystal without Mg2+ ([…] Å) and soak with Mg2+ ([…] Å); conditions: co-crystal 10 mM GTPγS, one copy mixed GDP/GTPγS, second copy full GTPγS; soak of GDP crystal with GTPγS and MgCl2; pH 5.5; nucleotide-binding site
[7] = target: MKD1-RB, roadblock (RB) protein from Loki MKD1 (Candidatus Prometheoarchaeum syntrophicum strain MK-D1); assay: crystal structure; MKD1-RB crystals in 100 mM MES, pH 6.0, 250 mM zinc acetate dihydrate, 6% wt/vol PEG 3000, 20 °C; solved using the Thor-RB structure

stoichiometry N [1]: 2
Compound: Odin-RBLC7, truncated roadblock (RBLC7) protein from Odin LCB_4 (natural protein)

stoichiometry N [5]: 2
Compound: SMTZ1-45 Thor-TRAPPC3, TRAPPC3-like protein from Thor SMTZ1-45 (natural protein)

stoichiometry N [7]: 2
Compound: MKD1-RB, roadblock (RB) protein from Loki MKD1 (natural protein)

More lines, now with the values behind:

Compound: Nc1nc2c(ncn2[C@@H]2O[C@H](COP(=O)(O)OP(=O)(O)OP(=O)(O)O)[C@@H](O)[C@H]2O)c(=O)[nH]1 [GTP]
phosphate release assay (EnzChek), GTP hydrolysis [2]: The GTPase activity of human Rab11B and SMTZ1-45 Thor-Rab were measured | phosphate release assay (EnzChek), GTP hydrolysis [3]: SMTZ1-45 Thor-Rab generated similar levels of phosphate in comparison to human Rab11B

Compound: Thor-RB, predicted roadblock (RB) protein from Thor SMTZ1-45 (natural protein)
stoichiometry N [4]: 2

Compound: Nc1nc2c(ncn2[C@@H]2O[C@H](COP(=O)(O)OP(=O)(O)OP(O)(O)=S)[C@@H](O)[C@H]2O)c(=O)[nH]1 [GTP-γS]
X-ray crystallography, co-crystal without Mg2+ (1.75 Å) and soak with Mg2+ (1.95) [6]: full occupancy for GTP-γS in the second copy
